Reference: article PMC7347389

Target: Cys109 (UniProt position 128, ADAGFCYPPET)
Experiment: NMR
Settings: 25 °C (general NMR condition 'unless stated otherwise'; not stated specifically for the pH series); reduced nDsbD (C103 and C109 as thiols), isolated domain, folded, cap loop closed

Thiol:disulfide interchange protein DsbD, N-terminal domain (nDsbD) (Escherichia coli)
pKa: above 11
